Measured values reported in patent US20170313764A1 (ACADEMISCH MEDISCH CENTRUM, published 2017).
Where two headings read alike, the source gives them in different places.

B1: AT15-009 (antibody, V domains shown)
VH: QVLLVQSGAEVKKPGSSVKVSCKASGGTFSTYAISWLRQAPGQGPEWMGGIVPMFGITNYAQHFQGRITITADKSTSTAYMELSSLGSEDTAVYFCARDLRSGGTFFSRGFDLWGPGTKVTVSS
VL: EIVLTQSPGTLSLSPGERATLSCRASQSVSSSFLTWYQQKPGQAPRLLIFDASTRATGVPDRFSGSGSGTDFTLTISRLEPEDFGVYYCQQFDSSPTFGGGTKVEIK
B2: AT12-010 (antibody, V domains shown)
VH: QLQLVQSGAEVKKPGSSVKVSCKASGGTFTSYAINWVRQVPGQGLEWMGEISPVFGTTHYAQKFQGRLKITADESADTAYMELSSLRSDDTAVYYCGRDRAPRLCSGGRCHSPPDHWGQGTLVTVSS
VL: DIQMTQSPSSVSASVGDRVTITCRASQGFGNWLAWYQQKPGRAPKLLIFGASTLQNGVPSRFSGSASGTDFTLTITSLQPEDFATYYCLQTNTFPYTFGQGTKVEIKR
B3: AT15-012 (antibody, V domains shown)
VH: QVQLVQSGAEVKKPGSSVKVSCKASGGNFNIFPITWVRQAPGQGLEWMGEIIPMLGTPEYAQKFQGRVTITADKSTGTAFMELSSLRSEDTAVYYCARTETTLPGTLFFVYYFHFWGQGTPVTVSS
VL: EIVMTQSPVTLSVSPGERAILSCRASQSVSSSLAWYQQKPGQAPRLLIYGASTRATGVPARFSGSGSGTEFTLTISSVQSEDYAIYFCQQYNDRPPWTFGQGTKVEIK
notes: also called AT15-12
B4: AT12-007 (antibody, V domains shown)
VH: QVQLEQSGAEVKKPGASVKVSCKVSGYTLTELSMHWVRQAPGKGLEWMGSFDPADGERLYAQKFQGRVIMSEDTSTDTAYMELSSLRSEDAAVYYCATAPRMTMFGVIMALDSWGQGTLVTVSS
VL: DIQMTQSPSTLSASLGDRVTITCRASQNINKYLAWYQQKPGKAPKLLIYKASNLQSGVPSRFSGSGSGTDFILTISSLQPDDFATYYCQQYTTYSAWTFGQGTNVDIKR

Key:
Test in all cases: ELISA, GNA-captured E1E2 lysate; EC50 wild type / EC50 mutant
[1] = target: E1E2 of HCV isolate H77 with single mutation P612A (Hepatitis C virus genotype 1a, strain …, UniProt P27958 192-383; P27958 384-746)
[2] = target: E1E2 of HCV isolate H77 with single mutation T534A (Hepatitis C virus genotype 1a, strain …, UniProt P27958 192-383; P27958 384-746)
[3] = target: E1E2 of HCV isolate H77 with single mutation N209A (in E1) (Hepatitis C virus genotype 1a, strain …, UniProt P27958 192-383; P27958 384-746)
[4] = target: E1E2 of HCV isolate H77 with single mutation W420A (Hepatitis C virus genotype 1a, strain …, UniProt P27958 192-383; P27958 384-746)
[5] = target: E1E2 of HCV isolate H77 with single mutation A439G (Hepatitis C virus genotype 1a, strain …, UniProt P27958 192-383; P27958 384-746)
[6] = target: E1E2 of HCV isolate H77 with single mutation P676A (Hepatitis C virus genotype 1a, strain …, UniProt P27958 192-383; P27958 384-746)
[7] = target: E1E2 of HCV isolate H77 with single mutation P664A (Hepatitis C virus genotype 1a, strain …, UniProt P27958 192-383; P27958 384-746)
[8] = target: T1, E1E2 of HCV isolate H77 with single mutation F442A (Hepatitis C virus genotype 1a, strain …, UniProt P27958 192-383; P27958 384-746)
[9] = target: T2, E1E2 of HCV isolate H77 with single mutation Y443A (Hepatitis C virus genotype 1a, strain …, UniProt P27958 192-383; P27958 384-746)
[10] = target: E1E2 of HCV isolate H77 with single mutation N532A (Hepatitis C virus genotype 1a, strain …, UniProt P27958 192-383; P27958 384-746)
[11] = target: E1E2 of HCV isolate H77 with single mutation R657A (Hepatitis C virus genotype 1a, strain …, UniProt P27958 192-383; P27958 384-746)
[12] = target: T3, E1E2 of HCV isolate H77 with single mutation G436A (Hepatitis C virus genotype 1a, strain …, UniProt P27958 192-383; P27958 384-746)
[13] = target: E1E2 of HCV isolate H77 with single mutation S424A (Hepatitis C virus genotype 1a, strain …, UniProt P27958 192-383; P27958 384-746)
[14] = target: E1E2 of HCV isolate H77 with single mutation W616A (Hepatitis C virus genotype 1a, strain …, UniProt P27958 192-383; P27958 384-746)
[15] = target: E1E2 of HCV isolate H77 with single mutation Y527A (Hepatitis C virus genotype 1a, strain …, UniProt P27958 192-383; P27958 384-746)
[16] = target: E1E2 of HCV isolate H77 with single mutation Y485A (Hepatitis C virus genotype 1a, strain …, UniProt P27958 192-383; P27958 384-746)
[17] = target: T1, E1E2 of HCV isolate H77 with single …; remark: listed apart in the source
[18] = target: T2, E1E2 of HCV isolate H77 with single …; remark: listed apart in the source
[19] = target: E1E2 of HCV isolate H77 with single mutation D535A (Hepatitis C virus genotype 1a, strain …, UniProt P27958 192-383; P27958 384-746)
[20] = target: E1E2 of HCV isolate H77 with single mutation G530A (Hepatitis C virus genotype 1a, strain …, UniProt P27958 192-383; P27958 384-746)
[21] = target: T3, E1E2 of HCV isolate H77 with single …; remark: listed apart in the source

Binder | relative binding, mutant vs wild type [1] [%] | relative binding, mutant vs wild type [2] [%] | relative binding, mutant vs wild type [3] [%] | relative binding, mutant vs wild type [4] [%] | relative binding, mutant vs wild type [5] [%] | relative binding, mutant vs wild type [6] [%] | relative binding, mutant vs wild type [7] [%] | relative binding, mutant vs wild type [8] [%] | relative binding, mutant vs wild type [9] [%] | relative binding, mutant vs wild type [10] [%] | relative binding, mutant vs wild type [11] [%] | relative binding, mutant vs wild type [12] [%] | relative binding, mutant vs wild type [13] [%] | relative binding, mutant vs wild type [14] [%] | relative binding, mutant vs wild type [15] [%] | relative binding, mutant vs wild type [16] [%] | relative binding, mutant vs wild type [17] [%] | relative binding, mutant vs wild type [18] [%] | relative binding, mutant vs wild type [19] [%] | relative binding, mutant vs wild type [20] [%] | other results
B1 | 94 | 93 | 105 | 102 | 97 | 102 | 101 | 27 | 64 | 118 | 123 | 93 | – | – | – | – | – | – | – | – | –
B2 | – | – | – | – | – | – | – | – | – | – | – | – | 16 | < 10 | 19 | 107 | < 10 | < 10 | 5 | < 10 | relative binding, mutant vs wild type [21]: < 10%
B3 | 81 | 95 | 99 | 111 | 94 | 92 | 83 | 60 | 103 | 125 | 138 | 91 | – | – | – | – | – | – | – | – | –
B4 | – | – | – | – | – | – | – | – | – | – | – | – | 34 | < 10 | 24 | 114 | < 10 | < 10 | 15 | < 10 | relative binding, mutant vs wild type [21]: 35%
